Values of other authors in publication PMC3429939.

Target: galectin-1 CRD (Homo sapiens) (UniProt P09382)

Kd: 7 µM
Substance: galectin-1 CRD (from UniProt P09382)
